± gives the uncertainty stated by the source.
Assay: self-splicing fitness, log relative to wild type (ln ratio); higher = more splicing; Tetrahymena group I intron in knt gene, E. coli kanamycin selection, DiMSum; sequences stand for … in CUCUCU…GGAGGGAAAAGUUAUCAGGCAUGCACCUGGUAGCUAGUCUUUAAACCAAUAGAUUGCAUCGGUUUAAAAGGCAAGACCGUCAAAUUGCGGGAAAGGGGUCAACAGCCGUUCAGUACCAAGUCUCAGGGGAAACUUUGAGAUGGCCUUGCAAAGGGUAUGGUAAUAAGCUGACGGACAUGGUCCUAACCACGCAGCCAAGUCCUAAGUCAACAGAUCUUCUGUUGAUAUGGAUGCAGUUCACAGACUAAAUGUCGGUCGGGGAAGAUGUAUUCUUCUCAUAAGAUAUAGUCGGACCUCUCCUUAAUGGGAGCUAGCGGAUGAAGUGAUGCAACACUGGAGCCGCUGGGAACUAAUUUGUAUGCGAAAGUAUAUUGAUUAGUUUUGGAGUACUCGUGGUCG
Summary of the method: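 Colonies from six replicate transformations of E. coli BL21(DE3) were pooled and amplicon-sequenced on an Illumina HiSeq 2500. The library placed an intron with all eight P1ex-region nucleotides randomised inside the knt kanamycin-resistance gene on pET-22b(+), and cells grew overnight at 37°C or 30°C on LB agar with or without 25 μg/mL kanamycin (plus 100 μg/mL carbenicillin, 50 μM IPTG, 0.2% rhamnose). Fitness is the DiMSum error-weighted combination of wild-type-normalised replicate fold changes, kanamycin versus none.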

Sequence | self-splicing fitness (ln) (30 °C) | self-splicing fitness (ln) (37 °C)
GAGUAGCAAUAUUACGCACA | -0.806 ± 0.14 | -0.0514 ± 0.18
GAGUAGCAAUAUUACGCCAU | -2.49 ± 0.19 | -2.33 ± 0.31
GAGUAGCAAUAUUACGCCUA | -1.21 ± 0.1 | -0.374 ± 0.11
GAGUAGCAAUAUUACGCGAA | – | -0.658 ± 0.37
GAGUAGCAAUAUUACGCUAG | -2.38 ± 0.18 | -0.481 ± 0.18
GAGUAGCAAUAUUACGCUGA | – | -1.55 ± 0.39
GAGUAGCAAUAUUACGGCAA | -1.84 ± 0.17 | -0.547 ± 0.18
GAGUAGCAAUAUUACGGCAU | -0.177 ± 0.089 | 0.37 ± 0.11
GAGUAGCAAUAUUACGGCUA | -1.11 ± 0.29 | -1.37 ± 0.31
GAGUAGCAAUAUUACGGGAA | -2.33 ± 0.21 | -2.14 ± 0.19
GAGUAGCAAUAUUACGGUGC | -1.19 ± 0.15 | 0.00945 ± 0.18
GAGUAGCAAUAUUACGGUUG | -2.7 ± 0.2 | -1.06 ± 0.2
GAGUAGCAAUAUUACGUGCA | -1.35 ± 0.14 | 0.558 ± 0.2
GAGUAGCAAUAUUACGUGCG | -2.61 ± 0.17 | 0.0549 ± 0.13
GAUAAGCAAUAUUACGAACG | -1.22 ± 0.14 | -0.754 ± 0.17
GAUAAGCAAUAUUACGAAGC | -2.17 ± 0.28 | -0.18 ± 0.21
GAUAAGCAAUAUUACGACAC | -0.403 ± 0.12 | 0.0901 ± 0.16
GAUAAGCAAUAUUACGAGCC | -1.5 ± 0.17 | -1.27 ± 0.23
GAUAAGCAAUAUUACGCACG | -1.16 ± 0.13 | -0.4 ± 0.17
GAUAAGCAAUAUUACGCACU | -1.21 ± 0.16 | -0.284 ± 0.2
GAUAAGCAAUAUUACGCCGA | -2.01 ± 0.18 | -1.14 ± 0.22
GAUAAGCAAUAUUACGCGGC | -3.27 ± 0.26 | -1.13 ± 0.2
GAUAAGCAAUAUUACGCUUC | – | -3.04 ± 0.29
GAUAAGCAAUAUUACGGAGC | -3.95 ± 0.29 | -1.76 ± 0.19
GAUAAGCAAUAUUACGGGGC | -2.96 ± 0.25 | -1.62 ± 0.18
GAUAAGCAAUAUUACGGGUG | -1.09 ± 0.081 | -1.02 ± 0.099
GAUAAGCAAUAUUACGGUAU | -2.17 ± 0.1 | -1.46 ± 0.12

Sequence | self-splicing fitness (ln) (30 °C) | self-splicing fitness (ln) (37 °C)
GAUAAGCAAUAUUACGUACA | -0.491 ± 0.15 | -0.262 ± 0.16
GAUAAGCAAUAUUACGUAUG | -1.53 ± 0.11 | -1.37 ± 0.1
GAUAAGCAAUAUUACGUGUU | -2.67 ± 0.17 | -2.18 ± 0.14
GAUAAGCAAUAUUACGUUGC | -3.38 ± 0.15 | -2.3 ± 0.21
GAUCAGCAAUAUUACGACGA | -0.224 ± 0.13 | 0.262 ± 0.14
GAUCAGCAAUAUUACGAUGG | -1.22 ± 0.096 | 0.121 ± 0.14
GAUCAGCAAUAUUACGCACG | -0.77 ± 0.076 | 0.0829 ± 0.077
GAUCAGCAAUAUUACGCAUU | -2.36 ± 0.26 | -1.05 ± 0.32
GAUCAGCAAUAUUACGCCAU | -3.36 ± 0.3 | -1.33 ± 0.19
GAUCAGCAAUAUUACGCCCG | -0.808 ± 0.25 | -0.447 ± 0.21
GAUCAGCAAUAUUACGCGCU | -1.86 ± 0.12 | -0.35 ± 0.12
GAUCAGCAAUAUUACGCUUA | -0.551 ± 0.12 | 0.0926 ± 0.13
GAUCAGCAAUAUUACGGAGG | -3.86 ± 0.24 | -1.82 ± 0.15
GAUCAGCAAUAUUACGGCAU | -0.0116 ± 0.068 | 0.0262 ± 0.092
GAUCAGCAAUAUUACGGGAC | -1.51 ± 0.085 | -0.976 ± 0.1
GAUCAGCAAUAUUACGGGGA | -1.61 ± 0.12 | -0.776 ± 0.12
GAUCAGCAAUAUUACGGGGU | -3.13 ± 0.3 | -2.32 ± 0.26
GAUCAGCAAUAUUACGGUGC | -2.03 ± 0.13 | -0.734 ± 0.11
GAUCAGCAAUAUUACGUUGU | -3.48 ± 0.13 | -2.78 ± 0.16
GAUCAGCAAUAUUACGUUUA | -0.394 ± 0.084 | 0.0451 ± 0.095
GAUCAGCAAUAUUACGUUUU | -0.968 ± 0.058 | 0.149 ± 0.08
GAUGAGCAAUAUUACGAACU | -0.431 ± 0.31 | -0.239 ± 0.31
GAUGAGCAAUAUUACGACUC | -1.68 ± 0.14 | -0.273 ± 0.24
GAUGAGCAAUAUUACGAGCU | -3.65 ± 0.26 | -2.11 ± 0.24
GAUGAGCAAUAUUACGAGGU | -2.66 ± 0.32 | -1.99 ± 0.33
GAUGAGCAAUAUUACGAUGC | -1.35 ± 0.086 | -0.41 ± 0.12
GAUGAGCAAUAUUACGCAAC | -2.76 ± 0.21 | -1.85 ± 0.21

Sequence | self-splicing fitness (ln) (30 °C) | self-splicing fitness (ln) (37 °C)
GAUGAGCAAUAUUACGCACC | -1.94 ± 0.44 | -1.13 ± 0.31
GAUGAGCAAUAUUACGCAGU | -3.61 ± 0.3 | -2.44 ± 0.33
GAUGAGCAAUAUUACGCCUU | -1.7 ± 0.24 | –
GAUGAGCAAUAUUACGCGCA | -1.91 ± 0.21 | -1.58 ± 0.19
GAUGAGCAAUAUUACGGAUU | -3.44 ± 0.44 | -1.68 ± 0.2
GAUGAGCAAUAUUACGGCCU | -2.54 ± 0.18 | -1.98 ± 0.23
GAUGAGCAAUAUUACGGUAC | -5.2 ± 0.36 | -2.2 ± 0.33
GAUGAGCAAUAUUACGGUGC | – | -1.53 ± 0.28
GAUGAGCAAUAUUACGUAAC | -1.63 ± 0.12 | -1.9 ± 0.3
GAUGAGCAAUAUUACGUCCU | – | -1.84 ± 0.49
GAUGAGCAAUAUUACGUCGA | -3.33 ± 0.35 | -2.68 ± 0.3
GAUGAGCAAUAUUACGUGCG | -3.79 ± 0.17 | -1.8 ± 0.13
GAUGAGCAAUAUUACGUGUC | -3.53 ± 0.31 | –
GAUGAGCAAUAUUACGUUGU | – | -1.69 ± 0.3
GAUGAGCAAUAUUACGUUUU | -3.82 ± 0.22 | -2.72 ± 0.2
GAUUAGCAAUAUUACGACAA | -0.938 ± 0.17 | -0.154 ± 0.14
GAUUAGCAAUAUUACGACAG | -3.57 ± 0.29 | -1.1 ± 0.23
GAUUAGCAAUAUUACGAGGA | -2.13 ± 0.29 | -2.08 ± 0.31
GAUUAGCAAUAUUACGAGUA | -2.63 ± 0.17 | -0.695 ± 0.13
GAUUAGCAAUAUUACGAUCG | -1.06 ± 0.11 | -0.387 ± 0.12
GAUUAGCAAUAUUACGAUUA | -0.22 ± 0.1 | -0.0882 ± 0.092
GAUUAGCAAUAUUACGCAAG | -2.11 ± 0.14 | -1.3 ± 0.13
GAUUAGCAAUAUUACGCACU | -0.846 ± 0.15 | 0.415 ± 0.18
GAUUAGCAAUAUUACGCCAA | -3.48 ± 0.31 | -1.91 ± 0.25
GAUUAGCAAUAUUACGCCCU | -0.409 ± 0.49 | –

— the supplement of paper PMC7877785
